This is an account of results in PMC5587793.

In data set [1] the target is T1, His-GapR (Caulobacter crescentus (NA1000?)) (UniProt B8H4R9).
T1 sequence: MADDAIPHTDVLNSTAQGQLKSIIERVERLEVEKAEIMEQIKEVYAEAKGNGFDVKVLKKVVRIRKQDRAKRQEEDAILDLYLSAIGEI
Briefly: EMSA. In general terms: Mobility shift assays separate free from complexed probe on a gel.

Data set [2] has as its target T2, His-GapR (Caulobacter crescentus, UniProt B8H4R9 1-89).
T2 sequence: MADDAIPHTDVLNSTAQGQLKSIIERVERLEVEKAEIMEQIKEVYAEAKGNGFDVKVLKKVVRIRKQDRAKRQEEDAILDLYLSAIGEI
In words: EMSA.

As usually defined, the Kd is the concentration at which binding is half-saturated. A lower Kd goes with a tighter complex. Cori DNA (EMSA of Figure S6) showed a Kd in data set [1] of 10 nM.

B1: CoriUP oligonucleotide (dsDNA)
DNA 1: GCAGGGCAAGTGGTTAAGCATATGTTAACGGATGATCCACAGG
DNA 2: CCTGTGGATCATCCGTTAACATATGCTTAACCACTTGCCCTGC
modifications: 3 bp up-replication mutation
Consider B1, for which, in data set [2], the binding result is “binds”.
